Key:
STAT3 [1] = target: T1, STAT3 (UniProt P40763 P40763:1-770); assay: EMSA; longer sequence effective in blocking STAT3 activation; settings: chain copies: 2 inferred
[2] = target: T2, pSTAT3 (tyrosine-phosphorylated STAT3) (UniProt P40763 P40763:1-770); assay: SPR; Langmuir 1:1, 4 C, 20 mM HEPES pH 7.0, 200 mM NaCl, 10 mM MgCl2; settings: tags: recombinant, immobilized on CM5 chip for SPR, chain copies: 2 inferred, hairpin, GAAA loop linking the strands
Experimental: (§1) To more quantitatively assess the affinity of the decoy for pSTAT3 protein, the binding affinity by surface plasmon resonance (SPR) was determined. Solutions of STAT3 decoy were prepared at multiple concentrations and passed over recombinant tyrosine phosphorylated STAT3 immobilized in a sensor chip.
(§2) The amount of parent STAT3 decoy and modified STAT3 decoys bound to recombinant pSTAT3 increased directly with increasing concentrations of STAT3 decoy in test solutions. Data analysis by fitting the sensorgrams to a Langmuir 1:1 model of binding yielded kinetic and affinity values (Table 4).
(§3) To determine the specific binding affinities of the parent and the modified decoys (DN4 and DS18) to the pSTAT3 protein, surface plasmon resonance (SPR) analyses were performed using a BIAcore 3000 instrument (GE Healthcare, Piscataway, N.J.). All buffer and sample solutions were filtered and degassed prior to each run, with more optimal pH and instrument parameters determined empirically. The pSTAT3 protein at 10 μg/ml in 10 mM sodium acetate buffer (pH 4.0), was immobilized on freshly activated chip surface. […] Binding of STAT3 decoy, DN4 and DS18 to pSTAT3 protein were determined at several concentrations such as […] 0.625 μM, 1.25 μM, 2.5 μM 5.0 μM and 10.0 μM of analyte solutions, at a flow rate of 30 μL/min in a running buffer (20 mM HEPES, pH 7.0, 200 mM NaCl, 10 mM MgCl₂). […]

STAT3 [3] = target: T1, STAT3; assay: EMSA; settings: chain copies: 2 inferred
[4] = target: T2, pSTAT3 (tyrosine-phosphorylated STAT3); assay: SPR; Langmuir 1:1, 4 C, 20 mM HEPES pH 7.0, 200 mM NaCl, 10 mM MgCl2; replicate 1.15E-7 (Table 5A), 3.20E-7 (Table 5B); Table 3 1.29E-7 to 9.91E-7; settings: tags: recombinant, immobilized on CM5 chip for SPR, chain copies: 2 inferred
Experimental: as §1, §2, §3

T1 sequence (P40763 whole entry, one chain of several): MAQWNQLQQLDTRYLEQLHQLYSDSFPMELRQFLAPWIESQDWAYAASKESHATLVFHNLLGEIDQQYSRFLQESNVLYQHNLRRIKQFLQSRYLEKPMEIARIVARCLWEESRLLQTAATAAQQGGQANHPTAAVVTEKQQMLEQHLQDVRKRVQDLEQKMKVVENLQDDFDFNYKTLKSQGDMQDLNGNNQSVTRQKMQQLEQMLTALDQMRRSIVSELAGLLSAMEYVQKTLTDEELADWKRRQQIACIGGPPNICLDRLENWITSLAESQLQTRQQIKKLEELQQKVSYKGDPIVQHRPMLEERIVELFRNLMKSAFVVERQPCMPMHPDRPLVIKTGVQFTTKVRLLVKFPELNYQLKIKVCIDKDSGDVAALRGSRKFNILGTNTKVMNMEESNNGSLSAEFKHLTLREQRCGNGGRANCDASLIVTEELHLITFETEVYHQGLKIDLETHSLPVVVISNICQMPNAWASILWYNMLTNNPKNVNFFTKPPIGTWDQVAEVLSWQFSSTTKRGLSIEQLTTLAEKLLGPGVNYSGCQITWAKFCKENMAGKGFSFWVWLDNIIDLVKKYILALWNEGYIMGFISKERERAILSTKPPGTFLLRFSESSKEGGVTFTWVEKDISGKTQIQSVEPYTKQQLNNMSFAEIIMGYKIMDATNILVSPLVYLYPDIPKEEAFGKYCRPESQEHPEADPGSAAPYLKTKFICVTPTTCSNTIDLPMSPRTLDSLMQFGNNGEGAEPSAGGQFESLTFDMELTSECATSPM
T2 sequence (P40763 whole entry, one chain of several): as above

B1: longer 31-mer hSIE duplex (dsDNA)
DNA 1: AGCTTGTCGACATTTCCCGTAAATCGTCGAG
DNA 2: CTCGACGATTTACGGGAAATGTCGACAAGCT
STAT3 [1]
  binding result: binds

B2: DN4 (structured_DNA)
DNA: CATTTCCCGTAAATCGAAAGATTTACGGGAAATG
modifications: PS x3 at 5' end of one strand and 3' end of the other (Table 2: 5' and 3' ends of both strands)
[2]
  Kd: 182 nM

B3: Mutant 3 (mutant control decoy) (dsDNA)
DNA 1: CATTTCCCTTAAATC
DNA 2: GATTTAAGGGAAATG
STAT3 [3]
  binding result: no binding

B4: STAT3 decoy (hSIE) (dsDNA)
DNA 1: CATTTCCCGTAAATC
DNA 2: GATTTACGGGAAATG
STAT3 [3]
  binding result: binds

B5: parent STAT3 decoy (PTO) (dsDNA)
DNA 1: CATTTCCCGTAAATC
DNA 2: GATTTACGGGAAATG
modifications: PS first three and last three bases of both strands
[4]
  Kd: 122 nM
